Experimental data from patent US20250215089A1 (HARBOUR BIOMED SHANGHAI, published 2025).
Where a chain is given by its changes, count along the chain named. Names may count otherwise. “And” between values parts separate entries of the source, which are not always exact repeats. Identical values can stand only once.

B1: PR007268 (bispecific antibody, human IgG1, kappa)
heavy: QVQLVESGGGVVQPGMSLRLSCAASGFDFSSYGMYWVRQAPGKGQEWVASIRYTGTEKHYADSVKGRFTISRDNSKNTLYLEMNSLRVEDTAVYYCAKNRAIFGVIPDDSDIRGQGTMVTVSSGGGGSQVQLVQSGAEVKKPGASVKVSCKASGYTFAGYYMYWVRQAPGQGLEWMGWINPDSGAPTYAQKFQGRVTMTRDTSISTAYMELSRLRSDDTAVYYCAREKIYYGSGNYYPSFDYWGQGTLVTVSSASTKGPSVFPLAPSSKSTSGGTAALGCLVKDYFPEPVTVSWNSGALTSGVHTFPAVLQSSGLYSLSSVVTVPSSSLGTQTYICNVNHKPSNTKVDKKVEPKSCDKTHTCPPCPAPEAAGAPSVFLFPPKPKDTLMISRTPEVTCVVVDVSHEDPEVKFNWYVDGVEVHNAKTKPREEQYNSTYRVVSVLTVLHQDWLNGKEYKCKVSNKALPAPIEKTISKAKGQPREPQVYTLPPSREEMTKNQVSLTCLVKGFYPSDIAVEWESNGQPENNYKTTPPVLDSDGSFFLYSKLTVDKSRWQQGNVFSCSVMHEALHNHYTQKSLSLSPGK
light: DIQLTQSPSFLSASVGDRVTITCRASQGISSYLAWYQQKPGKAPKLLIYAASTLQSGVPSRFSGSGSGTEFTLTISSLQPEDFATYYCQQLYSYPWTFGQGTKVEIKRTVAAPSVFIFPPSDEQLKSGTASVVCLLNNFYPREAKVQWKVDNALQSGNSQESVTEQDSKDSTYSLSSTLTLSKADYEKHKVYACEVTHQGLSSPVTKSFNRGEC
notes: VH of PR006246 (PD-L1) - GS_5 - heavy chain of CD40 IgG PR006497; human IgG1 L234A/L235A/G237A; also called PD-L1×CD40
B2: PR007269 (bispecific antibody, human IgG1, kappa)
heavy: B1 heavy
light: B1 light with Y92N, S93N
notes: VH of PR006246 (PD-L1) - GS_5 - heavy chain of CD40 IgG PR006511; human IgG1 L234A/L235A/G237A; also called PD-L1×CD40
B3: PR007273 (bispecific antibody, human IgG1, kappa)
heavy: B1 heavy with I106V, D109A
light: B1 light with Y92A
notes: VH of PR006245 (PD-L1) - GS_5 - heavy chain of CD40 IgG PR006495; human IgG1 L234A/L235A/G237A; also called PD-L1×CD40
B4: PR007619 (bispecific antibody, human IgG1, kappa)
heavy: QVQLVESGGGVVQPGMSLRLSCAASGFDFSSYGMYWVRQAPGKGQEWVASIRYTGTEKHYADSVKGRFTISRDNSKNTLYLEMNSLRVEDTAVYYCAKNRAIFGVIPDDSDIRGQGTMVTVSSGGSQVQLVQSGAEVKKPGASVKVSCKASGYTFAGYYMYWVRQAPGQGLEWMGWINPDSGAPTYAQKFQGRVTMTRDTSISTAYMELSRLRSDDTAVYYCAREKIYYGSGNYYPSFDYWGQGTLVTVSSASTKGPSVFPLAPSSKSTSGGTAALGCLVKDYFPEPVTVSWNSGALTSGVHTFPAVLQSSGLYSLSSVVTVPSSSLGTQTYICNVNHKPSNTKVDKKVEPKSCDKTHTCPPCPAPEAAGAPSVFLFPPKPKDTLMISRTPEVTCVVVDVSHEDPEVKFNWYVDGVEVHNAKTKPREEQYNSTYRVVSVLTVLHQDWLNGKEYKCKVSNKALPAPIEKTISKAKGQPREPQVYTLPPSREEMTKNQVSLTCLVKGFYPSDIAVEWESNGQPENNYKTTPPVLDSDGSFFLYSKLTVDKSRWQQGNVFSCSVMHEALHNHYTQKSLSLSPGK
light: B1 light with Y92V
notes: VH of PR006246 (PD-L1) - GS_3 - heavy chain of CD40 IgG PR006504; human IgG1 L234A/L235A/G237A; also called PD-L1×CD40
B5: PR007275 (bispecific antibody, human IgG1, kappa)
heavy: B1 heavy with I102L, D109A
light: B1 light with Y92A
notes: VH of PR006247 (PD-L1) - GS_5 - heavy chain of CD40 IgG PR006495; human IgG1 L234A/L235A/G237A; also called PD-L1×CD40

target: T1, human CD40 (human, UniProt P25942 21-277); assay: FACS, Raji cells
T1 construct: whole, on cells; also called hCD40; TNFRSF5
Procedure, shortened: (§1)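 Cells carrying bound test antibody were kept 1 h at 4° C in the dark, washed in cold PBS, then stained 30 min at 4° C with Alexa Fluor 488 goat anti-human IgG (H+L) (1:1000). Fluorescence signal was read by flow cytometry.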

T1 sequence (P25942 21-277): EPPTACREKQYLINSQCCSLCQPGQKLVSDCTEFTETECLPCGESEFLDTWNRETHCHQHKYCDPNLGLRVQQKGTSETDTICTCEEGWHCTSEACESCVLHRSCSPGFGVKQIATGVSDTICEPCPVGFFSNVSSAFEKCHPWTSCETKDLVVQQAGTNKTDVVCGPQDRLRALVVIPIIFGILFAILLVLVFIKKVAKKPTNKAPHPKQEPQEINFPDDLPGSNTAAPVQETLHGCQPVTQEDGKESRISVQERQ

Row | Binder | EC50 [nM] | Maximum MFI [MFI]
1 | B1 | 1.38 | 7430
2 | B2 | 1.46 | 7570
3 | B3 | 1.43 | 7580
4 | B4 | 1.26 | 6790
5 | B5 | 1.58 | 7650

target: T2, human PD-L1 (human, UniProt Q9NZQ7 19-290); assay: FACS, NCI-H226 cells
T2 construct: whole, on cells; also called hPD-L1; CD274
Procedure, shortened: (§2)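 Binding of antibodies to PD-L1-expressing cells (1×10⁶ cells/mL in PBS/2% BSA), tested in 4-fold dilution series. Incubation 2 h at 4° C in the dark, then washes. Fluorescence read by flow cytometry.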

T2 sequence (Q9NZQ7 19-290): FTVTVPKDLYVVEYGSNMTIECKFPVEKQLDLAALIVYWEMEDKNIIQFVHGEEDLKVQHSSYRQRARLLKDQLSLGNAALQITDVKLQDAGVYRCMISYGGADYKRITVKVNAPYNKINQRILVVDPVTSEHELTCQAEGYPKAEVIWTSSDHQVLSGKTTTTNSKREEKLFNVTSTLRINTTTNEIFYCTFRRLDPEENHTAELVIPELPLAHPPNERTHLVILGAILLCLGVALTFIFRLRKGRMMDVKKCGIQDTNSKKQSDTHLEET

Row | Binder | EC50 [nM] | Maximum MFI [MFI]
6 | B1 | 0.42 | 869
7 | B2 | 0.521 | 869
8 | B3 | 0.773 | 914
9 | B4 | 0.366 | 914
10 | B5 | 0.764 | 959

target: T2, human PD-L1; assay: cell-based or functional assay

Row | Binder | EC50, Jurkat-NFAT-hPD1 reporter | Maximum (RLU), Jurkat-NFAT-hPD1 reporter [RLU]
11 | B1 | 0.181 nM | 2810
12 | B2 | 0.162 nM | 2910
13 | B3 | 0.109 nM | 2520
14 | B4 | 0.122 nM and 0.309 nM | –
15 | B5 | 0.234 nM | 2840

target: T1, human CD40; assay: cell-based or functional assay

Row | Binder | EC50, HEK293-hCD40-NFκB reporter, + CHO-K1 [nM] | EC50, HEK293-hCD40-NFκB reporter, + CHO-K1/hPD-L1 [nM] | Maximum (RLU), HEK293-hCD40-NFκB reporter, + CHO-K1 [RLU] | Maximum (RLU), HEK293-hCD40-NFκB reporter, + CHO-K1/hPD-L1 [RLU]
16 | B1 | 0.266 | 0.0571 | 156000 | 286000
17 | B2 | 0.234 | 0.0692 | 189000 | 271000
18 | B3 | 0.238 | 0.0598 | 199000 | 333000
19 | B4 | 0.334 | 0.0312 | 3880 | 4780
20 | B5 | 0.213 | 0.0558 | 231000 | 371000

target: T1, human CD40; assay: FACS, CHO-K1/hCD40 cells
Procedure, shortened: as §1

Row | Binder | EC50 [nM] | Maximum MFI [MFI]
21 | B1 | 1.65 | 16300
22 | B2 | 2.4 | 16400
23 | B3 | 2.05 | 14300
24 | B4 | 2.5 | 17700
25 | B5 | 2.57 | 14200

target: T2, human PD-L1; assay: FACS, CHO-K1/hPD-L1 cells
Procedure, shortened: as §2

Row | Binder | EC50 [nM] | Maximum MFI [MFI]
26 | B1 | 1.08 | 19600
27 | B2 | 1.12 | 19700
28 | B3 | 1.39 | 19800
29 | B4 | 1.02 | 20100
30 | B5 | 1.29 | 20000

target: T3, cynomolgus monkey CD40 (cynomolgus monkey); assay: FACS, CHO-K1/cyCD40 cells
T3 construct: whole, on cells; also called cyCD40
Procedure, shortened: as §1

Row | Binder | EC50 [nM] | Maximum MFI [MFI]
31 | B1 | 2.8 | 65700
32 | B2 | 2.57 | 53000
33 | B3 | 4.2 | 71300
34 | B4 | 1.77 | 51300
35 | B5 | 4.12 | 66000

target: T4, cynomolgus monkey PD-L1 (cynomolgus monkey); assay: FACS, CHO-K1/cyPD-L1 cells
T4 construct: whole, on cells; also called cyPD-L1
Procedure, shortened: as §2

Row | Binder | EC50 [nM] | Maximum MFI [MFI]
36 | B1 | 0.68 | 4550
37 | B2 | 0.714 | 4670
38 | B3 | 0.89 | 4620
39 | B4 | 0.629 | 4820
40 | B5 | 0.807 | 4620
